For 57 variants, Kd and yeast surface expression results are on record in the FLAb antibody collection (doi:10.7554/elife.23156).

The chains are these.
B1: scFv; the commonest letter at each place (parent)
chain 1: EVKLDETGGGLVQPGRPMKLSCVASGFTFSDYWMNWVRQSPEKGLEWVAQIRNKPYNYETYYSDSVKGRFTISRDDSKSSVYLQMNNLRVEDMGIYYCTGSYYGMDYWGQGTSVTVS
chain 2: DVVMTQTPLSLPVSLGDQASISCRSSQSLVHSNGNTYLRWYLQKPGQSPKVLIYKVSNRFSGVPDRFSGSGSGTDFTLKISRVEAEDLGVYFCSQSTHVPWTFGGGTKLEIK

The variants in data set [1] derive from B1. The data set can be described thus: Kd (Tite-Seq). The conditions noted are these: with fluorescein; format: scFv 4-4-20, heavy + light.
The variants in data set [2] derive from B1. The data set can be described thus: yeast surface expression (ratio to wild type); higher = more expressed. The conditions noted are these: format: scFv 4-4-20, heavy + light.

Take chain 1 W33D N35G: the Kd in data set [1] was at least 10 µM. For the same variant, the yeast surface expression in data set [2] was found to be 0.941.
Take chain 1 F29T S30D M34V: the equilibrium dissociation constant (Kd) in data set [1] was at least 10 µM. Further, the yeast surface expression in data set [2] was 0.837.
Regarding chain 1 T28R W33L, the dissociation constant Kd in data set [1] was at least 10 µM. Besides, the yeast surface expression in data set [2] was found to be 0.935.
For chain 1 M105P G109I, the Kd in data set [1] was at least 10 µM. The yeast surface expression in data set [2] was determined as 0.208.
In the case of chain 1 S101Q Y102R, the dissociation constant Kd in data set [1] is at least 10 µM. Also, in data set [2], the yeast surface expression came to 1.07.
As to chain 1 Y102A W108P, in data set [1], the Kd was 0.000504 µM. Besides, the yeast surface expression in data set [2] amounted to 0.525.
Turning to chain 1 F29Y M34E, the equilibrium dissociation constant (Kd) in data set [1] was at least 10 µM. Moreover, in data set [2], the yeast surface expression came to 0.542.
chain 1 D106T G109R: the Kd in data set [1] is at least 10 µM. For the same variant, the yeast surface expression in data set [2] amounted to 0.26.
In the same order, the values of chain 1 Y102H M105P are at least 10 µM and 0.764.
In the same order, the values of chain 1 T28H M34H V37R are at least 10 µM and 2.76.
For chain 1 D31C W36G, in that order: at least 10 µM and 0.738.
For the variant chain 1 D31N V37H, in data set [1], the Kd was found to be 0.47 µM. In data set [2], the yeast surface expression worked out at 0.626.
As for chain 1 G100K D106V, the dissociation constant Kd in data set [1] was at least 10 µM. In addition, in data set [2], the yeast surface expression is 0.171.
With chain 1 Y103E W108N, in data set [1], the Kd is at least 10 µM. Also, the yeast surface expression in data set [2] was determined as 0.446.
Consider chain 1 T28A Y32V, for which the Kd in data set [1] is at least 10 µM. Besides, the yeast surface expression in data set [2] amounted to 1.32.
On to chain 1 G100I G109I, for which the Kd in data set [1] was at least 10 µM. Further, the yeast surface expression in data set [2] was found to be 0.25.
For the variant chain 1 S30H D31H, the dissociation constant Kd in data set [1] was determined as 0.00175 µM. In addition, the yeast surface expression in data set [2] worked out at 0.746.
Take chain 1 S30H D31L: the Kd in data set [1] is at least 10 µM. For the same variant, the yeast surface expression in data set [2] is 0.608.
In the same order, the values of chain 1 W108L G109R are at least 10 µM and 0.296.
As to chain 1 D31N W36C, the dissociation constant Kd in data set [1] is at least 10 µM. Besides, the yeast surface expression in data set [2] turned out to be 0.275.
Consider chain 1 G100V Y102P M105N, for which, in data set [1], the Kd was at least 10 µM. Moreover, in data set [2], the yeast surface expression came out at 0.63.
As for chain 1 Y32H N35D, in data set [1], the Kd is at least 10 µM. For the same variant, the yeast surface expression in data set [2] was 0.772.
Consider chain 1 T28Y M34W, for which the Kd in data set [1] turned out to be 0.0692 µM. In addition, the yeast surface expression in data set [2] stood at 0.6.
In the case of chain 1 F29R S30L, the Kd in data set [1] was at least 10 µM. For the same variant, the yeast surface expression in data set [2] came out at 0.654.
As for chain 1 N35G V37K, in data set [1], the equilibrium dissociation constant (Kd) is at least 10 µM. In addition, in data set [2], the yeast surface expression stood at 0.46.
As to chain 1 F29P V37H, the equilibrium dissociation constant (Kd) in data set [1] was at least 10 µM. The yeast surface expression in data set [2] was 0.626.
chain 1 W33R N35Y: the Kd in data set [1] was at least 10 µM. In addition, the yeast surface expression in data set [2] was found to be 0.794.
In the same order, the values of chain 1 Y32D W33V are at least 10 µM and 0.594.
As for chain 1 Y107M G109K, the Kd in data set [1] was at least 10 µM. In addition, the yeast surface expression in data set [2] stood at 0.42.
For chain 1 G104T D106Y, in data set [1], the dissociation constant (Kd) is at least 10 µM. Further, in data set [2], the yeast surface expression came out at 0.331.
With chain 1 M34L V37T, the Kd in data set [1] is at least 10 µM. In data set [2], the yeast surface expression amounted to 0.546.
Turning to chain 1 G100F Y102D, the Kd in data set [1] is at least 10 µM. Also, the yeast surface expression in data set [2] was found to be 0.974.
Regarding chain 1 G104I G109K, in data set [1], the Kd is at least 10 µM. In data set [2], the yeast surface expression was 0.246.
As to chain 1 T28G D31C, the Kd in data set [1] was at least 10 µM. Also, the yeast surface expression in data set [2] was determined as 0.472.
On to chain 1 G100I G104W, for which the Kd in data set [1] is at least 10 µM. Moreover, the yeast surface expression in data set [2] came out at 0.449.
For chain 1 D31A W33L, the Kd in data set [1] was at least 10 µM. In addition, the yeast surface expression in data set [2] amounted to 0.534.
In the same order, the values of chain 1 G100L G109V are at least 10 µM and 0.253.
As for chain 1 S30C V37D, the Kd in data set [1] is 2.01 µM. Besides, the yeast surface expression in data set [2] came to 1.73.
For chain 1 S101H W108C, in that order: at least 10 µM and 0.28.
In the case of chain 1 D31W W33L N35I, the Kd in data set [1] was at least 10 µM. Moreover, the yeast surface expression in data set [2] is 0.49.
Consider chain 1 F29C W33Q, for which, in data set [1], the dissociation constant (Kd) is at least 10 µM. In addition, the yeast surface expression in data set [2] was found to be 0.687.
Turning to chain 1 S101I G109I, in data set [1], the Kd is at least 10 µM. The yeast surface expression in data set [2] turned out to be 0.219.
Regarding chain 1 M105V Y107H, the Kd in data set [1] was at least 10 µM. Further, in data set [2], the yeast surface expression was 0.957.
As for chain 1 N35V V37Y, the Kd in data set [1] was at least 10 µM. Moreover, the yeast surface expression in data set [2] turned out to be 0.727.
Take chain 1 S30E N35E: in data set [1], the equilibrium dissociation constant (Kd) was at least 10 µM. In addition, the yeast surface expression in data set [2] was 0.894.
Regarding chain 1 N35H, in data set [1], the Kd is at least 10 µM. Further, in data set [2], the yeast surface expression came to 0.793.
Regarding chain 1 S101D D106R W108I, the Kd in data set [1] came out at 0.00251 µM. In addition, in data set [2], the yeast surface expression worked out at 0.452.
For chain 1 T28V W36H, in that order: at least 10 µM and 0.619.
For chain 1 W33M M34P, in that order: at least 10 µM and 0.576.
Consider chain 1 D31K W36T, for which the Kd in data set [1] was at least 10 µM. In addition, the yeast surface expression in data set [2] worked out at 0.343.
Consider chain 1 M105N G109E, for which, in data set [1], the Kd was at least 10 µM. Besides, the yeast surface expression in data set [2] worked out at 0.266.
As to chain 1 G100N S101I, the equilibrium dissociation constant (Kd) in data set [1] is at least 10 µM. Besides, the yeast surface expression in data set [2] came to 0.189.
In the same order, the values of chain 1 S101M Y103A are at least 10 µM and 0.658.
Take chain 1 S101F G104Q: the Kd in data set [1] is at least 10 µM. For the same variant, in data set [2], the yeast surface expression came out at 0.241.
For chain 1 T28C D31F M34A, in that order: at least 10 µM and 0.672.
On to chain 1 Y102Q M105Y, for which the equilibrium dissociation constant (Kd) in data set [1] was 0.75 µM. For the same variant, in data set [2], the yeast surface expression was 0.947.
In the case of chain 1 T28K F29C, the Kd in data set [1] stood at 0.0372 µM. For the same variant, the yeast surface expression in data set [2] is 0.906.
